# Measurements taken from the supplement of paper PMC9170038.
# System: K4 kissing-loop RNA reporter
# Experiment: apparent KD of K4 kissing-loop reporter; higher = weaker reporter binding
# Details: Eterna round: R107; input ligand: theophylline 20 uM
# Experimental: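 RNA-MaP round R107: designed RNA switches with theophylline, tryptophan, arginine or FMN aptamers are transcribed on-chip within common flanks. They are titrated with a labelled K4 kissing-loop RNA reporter in RNA-MaP buffer (100 mM Tris pH 7.5, 80 mM KCl, 4 mM MgCl2), without ligand or with the indicated ligand. Median apparent KD per design.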
# 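Note: bound reporter read as fluorescence of individual clusters on recovered sequencing chips by microscopy, with normalized cluster intensities fitted with a binding model.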
row,Sequence,apparent KD of K4 kissing-loop reporter
1,UCCUGCAAUCUGCCACGAAAGUGGGUUGAUACCAGAGUCGAAAGACUCCCUUGGCAGCGAGUGAUGUUCGUUGCAGGUGAAUAAA [MatMod 9 - Jieux - Exclusion - Theophylline A],309 nM
2,GUCCCGAGUGAUGUUCGGGUCGUUCGGGAAGGAGCGCCCGGAAGGGCAGGUAGGUCGCCCGGAUCCCUCAGGUAACUGAGGGACC [#2 Same State - Arginine A Attempt #25 (HarryS)],450 nM
3,AAUGUAUGGCACAUGAGUGAUGUUCAUGUCCGAGGACCGGUACGGCCGCCACUCGGUCCUGGGUUCUUAUUACUAUACAUUAAUG [KL-XTryp-A2 #analogue],169 nM
4,GCCGUACGCAUGGAUACCAGAUGGCACUAUUUUCUCCCAGAGUGAUGUUCUGGCCUGCCUAUCCCUUGGCAGCCAUGCGUACGGC,488 nM
5,AGAUUCGACACGGCCGCCACUUCCAGUGGCUGGUGUCAUGGUGCACGUGAGUGAUGUUUAUGUGGAAGGACCGGGUGUUGAGUCU [KL-XTryp-B2 #analogue],504 nM
6,AAACGUUGGUGCGAUACCAGCUGAUCGGAAACGAUCUUGCUGGAGUGAUGUUCCAAGUAAAGCCCUUGGCAGCGCACCGACGAAA [MAT - Same State Theophlline B - Mod of Eli - D22],145 nM
7,AGGCCCGGCCGAAAGGCCGGGCCAAGAGAUACCAGCAGCGAAAGCUGCCCUUGGCAGCUCACUUAGUGAUGUUAAGAAUAGAACA [SS Theo A Tesla 1],485 nM
8,UUGUCCGGGUGAUGGUCAUCACGUGGCGGGCGAGGACCGGUACGGCCGCCACUCGACUUUGCAGUGAUGUUGCAAACCGGACAAU [Exclusion - Tryptophan A (Freestyle 23)],224 nM
9,AUUUAAUGUAUAGAUUAUAUACAUUAUUCAGAGGAUAUGCAUUGAAGCAGAAGGCUGGGUGUAGUGAUGUUGCAAUUUUAAUUUA [whbob_SS_FMNA__2th172],299 nM
10,GUGCGGCUAGUGAUGUUGGUUGUGUGGGAAGGAGCGCAGAUUCAUGCAGGUAGGUCGCCCACACGUCUGAAAGGAUGAUAAUUCA [#12 K4 Arginine A Same State],407 nM
11,GACGGGUUCCUGCUCAAUCCGUCGCAUGAUCGAGGACCGGUACGGCCGCCACUCGAGGCCAUGCCGUACGAGUGAUGUUCGUGCG [Xeon],380 nM

# Same assay, conditions: Eterna round: R107; input ligand: tryptophan 2.4 mM
row,Sequence,apparent KD of K4 kissing-loop reporter
1,AUGGUUGUCGUAGGAUAUGUAGGUAAUUCCUAUAGCAGUGAUGUUGCUAAUAUCUUGGAAGAAGGAACAGAAGGACGAUAACCAC [KL-SSFMN-B1 #analogue],106 nM
2,AGGCCACACAGCGAGUGAUGUUUGCGUUAUCGAGGACCGGUACGGCCGCCACUCGGCCUUUAGCGCCUUACCAAUUAGGUGUUGC [theeternabot_sameState_KL_Trp_A_46],647 nM
3,UAUAUACAUUUAUUAAUUAAAGGUUCAGAAGGAGCGUGAAUUAACACAGGUAGGUCGCUGAGCGAGUGAUGUUCGCUAUAUGGAA [JR_ExcArginiA_Sub006],50.4 nM
4,UCGGUAUAGUGAUGUUAUAUAGAGAGUGAUACCAGUUUAGAGAGAAACCCUUGGCAGCAUAGAAGAGUAUCAUUGGAGGAGGAGG [#20 K4 Theophylline A Exclusion],301 nM
5,UGAUACCAGACGGCCGCCACUGGUGCAUGUCAAAGACAUGCUAACCAAAUCGUGGAGUGAUGUUCCAGGACCGGGUCUGGUAUCU [TrypBX 22 #SwitchBubble #Palindromic #StaticStem],570 nM
6,AAUGUACAGGGAAGGAGCGCCGUCCAGUGAUGUUGGAGUUAAAUACCAGUGAUGUUGGUUAGGCAGGUAGGUCGCCCUAUAGUAU [#07 K4 Arginine B Exclusion],108 nM
7,AGUAGUUGGACGGCCGCCACUAGAACGGCUUUGCCAAAGGCAGAGCACUAGAGUGAUGUUCUAGCUAGGACCGGGUCCAACUACA [Omei KL Tryp B SS A v3],773 nM
8,UGGGAUGUUAAAGGAUAUAGCAAGUGAUAUAAGAAAGUGAGUGAUGUUUAUGUAGGUGAUGAUAUGUUAGAAGGUUAACAAAACG [abcdefgh],218 nM
9,UAUAUAGUGACGGCCGCCACUAUAUUAAUGUUUUUGUUAGAGUGAUGUUUUGUUUAAUAUUUUUAUAGGACCGGGUUAUAUGUUA [zsqqxmullin],580 nM
10,GGUAGCAUGGCGGCCGCCACUAACAACCUCACCUGCGGCUCGAUCGAGUGAUGUUCGAACGCAAUUAGGACCGGGCCAUGCUACC,122 nM
11,UGGAGUUGACGAAAAGUCAACUCCUGAGAUACCAGUGACGAAAGUCACCCUUGGCAGCUCACUGGCAGUGAUGUUGCAAAAUAAA [KL-SSTheo-A4],123 nM
12,AUGCGCGUGCGAUGAAAAUCGCACGCGCAUCGAGGACCGGUACGGCCGCCACUCGCUCGCGCCGAGUGAUGUUCGGCCGGCGAAC [#2 Same State - Tryptophan A Attempt #4 (HarryS)],506 nM
13,AUAGGAGUGAUGUUCCUUAGUUUCUCCGAUACCAGUAUGGAAACAUACCCUUGGCAGCGGGAAACCGCUGAUUAGGAAACUAGUC [Theophylline A K4 7],223 nM
14,GGCAGUGAUGUUGCCAGUGGCAGAUGCGAAGGAGCGCGGUGAGACGCAGGUAGGUCGCGCAUUGAAAUUGCUGUCACUAAAAUGC [#1],238 nM
15,AAUUUACAAUAAUCAUUUAAAGGAUCAGAAGGAGCGUGAAAUAACACAGGUAGGUCGCUGAGCGAGUGAUGUUCGCUAUAUACAA [JR_ExcArginiA_Sub001],50.1 nM
16,GCCGUACGCAUGGAUACCAGUCUAAGAGUGAUGUUCUUACCGAUUGCGCCUGGAUCAUUAGACCCUUGGCAGCCAUGCGUACGGC,146 nM
17,GAUCUGAACGAAAGUUCGGAUCAUUCCGAUACCAGUAUGGAUUCAUACCCUUGGCAGCGGGAUUCUGCUAUGGAGUGAUGUUCCA [Theophylline A K4 15],362 nM
18,GGGAGUAGUGCGGCCGCCACUGAGAAAGAAGAAGAAUGUAGUGAUGUUAUGUAGGAAAGGAAGAACAGGACCGGGCAUUAGAUUU [SSTRyptB.H],497 nM
19,CGCAGUGAUGUUGCGAAUAUAAUAACGGAAGGAGCGCGUGAAAACGCAGGUAGGUCGCCGAUUGGUAUGAUGGAAACAUCGUACC [Arginine A K4 9],122 nM
20,AAAUCUUUCAGAAGGAGCGUGGAUUAUUCAUAUAUAUUUAUUACGAGUGAUGUUCGUAAUUCACAGGUAGGUCGCUGUUCAAUAA [JR_ExcArginiB_Sub005],102 nM
21,UAAGAGUCUCUGCAAUUAGCAGAGACUCAACGAGGACCGGUACGGCCGCCACUCGGGUCCUAGAGUGAUGUUCUAAUAAUAUAAU [AK1.1 SS Tryptophan A],176 nM

row,Sequence,apparent KD of K4 kissing-loop reporter
1,UGAUAAAGCAGUGAUGUUGCAAGUAAUGAUACCAGUUAAGAAGAGAACCCUUGGCAGCAUAAAGUGCGCUCUGAUGAGUGUGCUU [whbob_SS_Theo_A_w52],95.6 nM
2,UGAUACCAGACGGCCGCCACUCCUGCAAGUCAAAGACUUGCUAAAAGGAUCGUCCAGUGAUGUUGGAGGACCGGGUCUGGUAUCU [TrypBX 19 #SwitchBubble #Palindromic #StaticStem],486 nM
3,GCUCAGGAGUGAUGUUCCUAGUGAUGUUAACGAGGACCGGUACGGCCGCCACUCGAUACGGCCGGACCGUAGGAUAAACUAGAGC [Same State - Tryptophan A (Freestyle 10)],340 nM
4,UCUCGGGCCAGUGAUGUUGGCGGCUAGUGGCGAGGACCGGUACGGCCGCCACUCGGCGCAGCAGCGGAGUGAUGUUUCGUGAGUA [Same State Tryptophan A GF 17],198 nM
5,AAACGUUGGUGCGAUACCAGCUUGAUCGGUAAACGAUCUACUGGAGUGAUGUUCCUAAAUAGCCCUUGGCAGCGCACCGACGAAA [MAT - Same State Theophlline B - Mod of Eli - D8],166 nM
6,AGUCCGCUCCAAGGAUAUAGUCCGGCUGCGCGUCAGUGAUGUUGAAGAAGUAUCGCGUCUCUAUAGCUAGAAGGUGGCGCAAUUG [theeternabot_sameState_KL_FMN_B_20],782 nM
7,UUUAGGAGCGGUGUUGAUUAGGGAGCGGAAGGAGCGCCGAUUAUGGCAGGUAGGUCGCCGGAAUGUAGUGAUGUUGCAUAGAGGG [ExArgA.V],166 nM
8,UAUAGACAAGUGAUGUUUGUCAUAUCCGAAGGAGCGUCUUCUAAGACAGGUAGGUCGCGGAUUAAUUUUGUUAUGAUACUAUUUA [JR_SSArginiA_Sub016],104 nM
9,UUGAGUGAUGUUCAAUUAAUGUGCAACGAUACCAGCUCAUAUGCUAGCCCUUGGCAGCGUGGUAACGUAAUUUUAUCAAAUGAUA [theeternabot_exclusion_KL_Theo_A_39],145 nM
10,GGUUAGUGAUGUUGAUCAAAUCGCGGUGAUACCAGCAACACAUCGUGCCCUUGGCAGCACGGCAAAAUGAAUGCGGUCGAAUGCG [theeternabot_exclusion_KL_Theo_A_19],412 nM
11,UCCUGCAAUCUGCCACGAAAGUGGGUUGAUACCAGAGUCGAAAGACUCCCUUGGCAGCGAGUGAUGUUCGUUGCAGGUGAAUAAA [MatMod 9 - Jieux - Exclusion - Theophylline A],323 nM
12,GUCCCGAGUGAUGUUCGGGUCGUUCGGGAAGGAGCGCCCGGAAGGGCAGGUAGGUCGCCCGGAUCCCUCAGGUAACUGAGGGACC [#2 Same State - Arginine A Attempt #25 (HarryS)],466 nM
13,AAUGUAUGGCACAUGAGUGAUGUUCAUGUCCGAGGACCGGUACGGCCGCCACUCGGUCCUGGGUUCUUAUUACUAUACAUUAAUG [KL-XTryp-A2 #analogue],289 nM
14,GCCGUACGCAUGGAUACCAGAUGGCACUAUUUUCUCCCAGAGUGAUGUUCUGGCCUGCCUAUCCCUUGGCAGCCAUGCGUACGGC,671 nM
15,AGAUUCGACACGGCCGCCACUUCCAGUGGCUGGUGUCAUGGUGCACGUGAGUGAUGUUUAUGUGGAAGGACCGGGUGUUGAGUCU [KL-XTryp-B2 #analogue],1250 nM
16,AAACGUUGGUGCGAUACCAGCUGAUCGGAAACGAUCUUGCUGGAGUGAUGUUCCAAGUAAAGCCCUUGGCAGCGCACCGACGAAA [MAT - Same State Theophlline B - Mod of Eli - D22],69.3 nM
17,AGGCCCGGCCGAAAGGCCGGGCCAAGAGAUACCAGCAGCGAAAGCUGCCCUUGGCAGCUCACUUAGUGAUGUUAAGAAUAGAACA [SS Theo A Tesla 1],390 nM
18,UUGUCCGGGUGAUGGUCAUCACGUGGCGGGCGAGGACCGGUACGGCCGCCACUCGACUUUGCAGUGAUGUUGCAAACCGGACAAU [Exclusion - Tryptophan A (Freestyle 23)],210 nM
19,AUUUAAUGUAUAGAUUAUAUACAUUAUUCAGAGGAUAUGCAUUGAAGCAGAAGGCUGGGUGUAGUGAUGUUGCAAUUUUAAUUUA [whbob_SS_FMNA__2th172],84.1 nM
20,GUGCGGCUAGUGAUGUUGGUUGUGUGGGAAGGAGCGCAGAUUCAUGCAGGUAGGUCGCCCACACGUCUGAAAGGAUGAUAAUUCA [#12 K4 Arginine A Same State],350 nM
21,GACGGGUUCCUGCUCAAUCCGUCGCAUGAUCGAGGACCGGUACGGCCGCCACUCGAGGCCAUGCCGUACGAGUGAUGUUCGUGCG [Xeon],200 nM
